Twelve molecules from US20190031754A1 (Scripps Research, published 2019) can be followed below.

Like-named read-outs stand apart in the source and are kept apart here.

One test concerns the target T1, BSA (bovine, UniProt P02769).
T1 construct: also called bovine serum albumin
Description: ELISA, coated antigen 100 ng/well, anti-His HRP, absorbance 405 nm. (ELISA stands for enzyme-linked immunosorbent assay.)

Another test addresses T2, hFc-hROR1 (human, UniProt Q01973 30-403, limits assumed).
T2 construct: also called ROR1 (ELISA control); not shown: human Fc (hFc) of pCEP4-hFc-hROR1 (Yang et al., 2011)
The description is as above.

The target of test [1] is T3, recombinant human twin strep-tagged ROR2 extracellular domain (human, UniProt Q01974 34-403).
T3 construct: extracellular domain; Made in HEK293T, Streptactin purified; also called Human ROR2-TwinStrep; human ROR2
As to the kind of experiment: ELISA, IgG titrated on coated twin-strep human ROR2 ECD; fit printed as IC50.

For test [2], the target named is T4, anti-human Fc (Jackson ImmunoResearch, 109-006-008).
T4 construct: Coated on a control plate to capture the chimeric IgG1 antibodies through their human Fc; also called IgG
As to the kind of experiment: ELISA, IgG titrated on coated anti-human Fc; fit printed as IC50.

For test [3], the target named is T4, anti-human Fc (Jackson ImmunoResearch, …). Described as above. This is another data set of the same source.
Test [4] has as its target T5, full-length human ROR2 on cells (human, UniProt Q01974 34-943).
T5 construct: whole, on cells; the cells are named under assay; In the Western blot it is denatured; also called hROR2; cell surface human ROR2
As to the kind of experiment: flow cytometry, 63-12 cells expressing hROR2, Fab 1 µg/100 µL, anti-His Alexa Fluor 488. Background: Flow cytometry measures light scatter and fluorescence of single cells or particles in a stream.

The target of test [5] is T3, recombinant human twin strep-tagged …. As to the kind of experiment: ELISA, IgG titrated on coated twin-strep human ROR2 ECD; fit printed as IC50. The source holds these as a separate data set.
The target is the same in test [6]. Description: SPR, Biacore T200, IgG captured by anti-human Fcγ, ROR2-TwinStrep as analyte, 1:1 Langmuir.
The target in test [7] is T6, recombinant cynomolgus twin strep-tagged ROR2 extracellular domain (cynomolgus monkey, UniProt A0A7N9D5U8 34-403).
T6 construct: extracellular domain; Made in HEK293T, Streptactin purified; also called cynomolgus ROR2; cynomolgus ROR2-TwinStrep
Described as above.

Test [8] has as its target T6, recombinant cynomolgus twin …. Description: ELISA, IgG titrated on coated twin-strep cynomolgus ROR2 ECD; fit printed as IC50.

T2 sequence (Q01973 30-403 limits assumed): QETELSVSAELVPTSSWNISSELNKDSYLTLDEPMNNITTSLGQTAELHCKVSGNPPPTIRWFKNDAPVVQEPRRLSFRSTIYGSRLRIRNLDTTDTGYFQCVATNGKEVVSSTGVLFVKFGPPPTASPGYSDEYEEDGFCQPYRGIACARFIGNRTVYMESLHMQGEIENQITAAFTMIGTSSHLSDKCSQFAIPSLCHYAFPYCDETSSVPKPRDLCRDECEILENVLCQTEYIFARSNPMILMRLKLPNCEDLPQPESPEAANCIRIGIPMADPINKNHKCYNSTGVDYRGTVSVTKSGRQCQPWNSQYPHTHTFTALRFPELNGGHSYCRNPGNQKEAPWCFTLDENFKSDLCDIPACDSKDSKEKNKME
T1 sequence (P02769 25-607 limits assumed): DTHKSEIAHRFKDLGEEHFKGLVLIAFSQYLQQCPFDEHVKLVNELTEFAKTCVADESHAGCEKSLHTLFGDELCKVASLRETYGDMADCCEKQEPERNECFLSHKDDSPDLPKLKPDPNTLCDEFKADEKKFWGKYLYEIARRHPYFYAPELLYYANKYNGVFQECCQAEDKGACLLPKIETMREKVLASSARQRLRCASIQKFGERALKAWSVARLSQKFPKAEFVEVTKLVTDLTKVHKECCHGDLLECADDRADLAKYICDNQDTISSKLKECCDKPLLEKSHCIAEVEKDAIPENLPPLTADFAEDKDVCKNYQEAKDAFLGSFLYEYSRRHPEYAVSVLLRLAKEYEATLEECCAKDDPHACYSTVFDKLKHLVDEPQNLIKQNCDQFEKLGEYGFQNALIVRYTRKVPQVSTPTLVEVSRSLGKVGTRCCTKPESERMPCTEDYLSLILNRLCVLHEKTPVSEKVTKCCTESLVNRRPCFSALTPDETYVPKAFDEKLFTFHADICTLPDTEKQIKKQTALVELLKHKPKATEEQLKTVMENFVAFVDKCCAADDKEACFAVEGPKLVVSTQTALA

B1: chimeric rabbit/human Fab XBR2-327 (Fab, V domains shown)
VH: QEQLKESGGGLFKPTDTLTLTCTVSGFSLSSGAISWVRQAPGNGLEYIGFVNSLGNTYYANWAKSRSAITRNTNENTVTLKMTSLAAADTATYFCAKDYGNWAFDPWGPGTLVTVSS
VL: DPVLTQTPSSVSAAVGGTVAINCQASQSISSYLSWYQQKPGQPPKLLIYGASKLASGVPSRFSGSGSGTEYTLTISGVQREDAATYYCLGGYASASYRTAFGGGTKLEIK
In the case of B1, the binding result with BSA and with hFc-hROR1 was “no binding (tested: 100 ng/50 µL)” each time.

B2: XBR2-327 (mAb007) (antibody, human IgG1, V domains shown)
VH: QEQLKESGGGLFKPTDTLTLTCTVSGFSLSSGAISWVRQAPGNGLEYIGFVNSLGNTYYANWAKSRSAITRNTNENTVTLKMTSLAAADTATYFCAKDYGNWAFDPWGPGTLVTVSS
VL: DPVLTQTPSSVSAAVGGTVAINCQASQSISSYLSWYQQKPGQPPKLLIYGASKLASGVPSRFSGSGSGTEYTLTISGVQREDAATYYCLGGYASASYRTAFGGGTKLEIK
notes: Full-length chimeric rabbit/human IgG1, human IgH-gamma1 and IgL-kappa constant regions; C-terminal tags HC: LPETG-Strep, LC: G5SLPETG-Strep
In the case of B2, the IC50 (as a rule, the midpoint of a concentration-inhibition curve) in test [1] was 0.00057 µg/mL; in [2] it was 0.0433 µg/mL; in test [3], 0.0102 µg/mL.

B3: chimeric rabbit/human Fab ERR2-317 (Fab, V domains shown)
VH: QSLEESGGRLVTPGTPLTLTCTASGFSLSSYDMIWVRQAPGKGLEYIGIINAGGNTYYASWAKGRFTISRTSTTVDLKMTSPTTEDTATYFCARGSSWTGDIWGPGTLVTVSS
VL: DPVLTQTPSSTSAAVGGTVTIKCQASQSISSYLSWYQQKPGQPPKQLIYAASTLASGVPSRFKGSGSGTEYTLTISGVQREDAATYYCLGGYASASYQTAFGGGTKVEIK
In the case of B3, the binding result in the test with BSA and with hFc-hROR1 was “no binding (tested: 100 ng/50 µL)” each time.

B4: chimeric rabbit/human Fab ERR2-316 (Fab, V domains shown)
VH: QKQLVESGGRLVTPGGSLTLTCTVSGFSLSKYGVSWVRQAPGSGLEYIGTIGGSGTSYYASWAKSRSTITRNTNLNTVTLKMTSLTAADTATYFCARYFGWNTGFDIWGPGTLVTISS
VL: DPVMTQTPSSVSEPVGGTVTIKCQASQSISNALAWYQQKPGQPPKRLIYKASTPASGVPSRFKGSRSGTEYTLTISGVQREDAATYYCLGFSVVSNDGWAFGAGTNVEIK
B4: the binding result in the test with BSA and with hFc-hROR1 was “no binding (tested: 100 ng/50 µL)” in each case.

B5: chimeric rabbit/human Fab ERR2-TOP35 (Fab, V domains shown)
VH: QSVKESEGGLFKPMDTLTLTCTVSGFSLNTYGVSWVRQAPGNGLEWIGAVGSSGATNYASWAKSRSTITRNTNENTVTLKMTSLTAADTATYFCARDGYYSSGWGPYFSIWGPGTLVTVSS
VL: SFVLTQPASVQVNLGQTVSLTCTAETLRSSYASWYQQKPGQAPVLLIYRDTSRPSGVPDRFSGSSSGNTATLTISGAQAGDEADYYCATSDGSGSRYYVFGGGTQLTVTG
On to B5, for which the binding result with BSA and in the test with hFc-hROR1 was “no binding (tested: 100 ng/50 µL)” in each case.

B6: chimeric rabbit/human Fab XBR2-433 (Fab, V domains shown)
VH: QSVKESEGGLFKPTDTLTLTCTVSGFSLSTYGVSWVRQAPGNGLEWIGAIGSSGSANYASWAKDRSTITRNTNLNTVTLKMTSLTAADTATYFCARDGYYSSGWGPYFNIWGPGTLVTISS
VL: SFVLTQPASVQVNLGQTVSLTCTADTLSRSYASWYQQKPGQAPVLLIYRDTSRPSGVPDRFSGSSSGNTATLTISGAQAGDEADYYCATSGGSGSNPQYVFGGGTQLTVTG
notes: also called Fab 4-33
With B6, the binding result with BSA and in the test with hFc-hROR1 was “no binding (tested: 100 ng/50 µL)” in each case.

B7: chimeric rabbit/human Fab ERR2-TOP2 (Fab, V domains shown)
VH: QSLEESGGRLVTPGTPLTLTCTVSGFSLSSYAISWVRQAPGKGLEWIGTIGTRGDTAYANWAKGRFTISKTSTTVTLKMTSPTTEDTATYFCARELVAGGGSDLWGPGTLVTVSS
VL: DVVMTQTPSSVSAVVGGTVTIKCQASQSITSWLSWYQQKPGQPPKLLIYGASHLASGVPSRFKGSGYGTEFTLTISGIQREDAATYYCLGGYLSASYQTAFGGGTKVEIK
Turning to B7, the binding result in [4] is “binds”; with BSA it was “no binding (tested: 100 ng/50 µL)”; in the test with hFc-hROR1, “no binding (tested: 100 ng/50 µL)”.

B8: chimeric rabbit/human Fab ERR2-308 (Fab, V domains shown)
VH: QEQLEESGGRLVTPGTPLTLTCAVSGFSLSNYAMGWVRQAPGEGLEYIGWISAGGGAYYASWVNGRFTISKTSSTVDLKMTSLTAADTATYFCARGASNGCDLWGPGTLVTVSS
VL: DPMLTQTPSSVSAVVGGTVTIKCQASQSITSWLSWYQQKPGQPPKLLIYGASHLASGVPSRFKGSGYGTEFTLTISGIQREDAATYYCLGGYSNSDIVFGGGTELEIL
As to B8, the binding result with BSA and with hFc-hROR1 was “no binding (tested: 100 ng/50 µL)” each time.

B9: chimeric rabbit/human Fab XBR2-416 (Fab, V domains shown)
VH: QEQLEESGGRLVTPGTPLTLTCTVSGFSLSSYWMSWVRQAPGKGLEWIGTITPGGNTDYATWAKARFTVSKTSTTVDLKITSPTTEDTATYFCARGIGGAADLWGPGTLVTISS
VL: AQVLTQTPSSTSAAVGGTVTIKCQASQSISSSDLSWYQQKPGQPPKLLIYATSYLASGVPSRFKGSGSGTEYTLTISGVQREDAATYYCLGGYPNTSYRSAFGGGTKVEIK
notes: also called Fab 4-16
With B9, the binding result with BSA and with hFc-hROR1 was “no binding (tested: 100 ng/50 µL)” each time.

B10: chimeric rabbit/human Fab XBR2-401 (Fab, V domains shown)
VH: QSVKESEGGLFKPTDTLTLTCTVSGFSLSSYGVTWVRQAPGSGLEWIGYINTAGNTYYASWAKSRSTITRNTNENTVTLKMTSLTAADTATYFCARDWTSLNIWGPGTLVTVSS
VL: DPMLTQTPSSTSTAVGDTVTIKCQASQSISSDLSWYQQKPGQRPKLLIYQASTLASGVPSRFKGSGYGTEYTLTISGVQREDAAIYYCLGGYADASYRTAFGGGTKLEIK
notes: also called Fab 4-1
Regarding B10, the binding result with BSA and with hFc-hROR1 was “no binding (tested: 100 ng/50 µL)” in each case.

B11: XBR2-401 (mAb003) (antibody, human IgG1, V domains shown)
VH: QSVKESEGGLFKPTDTLTLTCTVSGFSLSSYGVTWVRQAPGSGLEWIGYINTAGNTYYASWAKSRSTITRNTNENTVTLKMTSLTAADTATYFCARDWTSLNIWGPGTLVTVSS
VL: DPMLTQTPSSTSTAVGDTVTIKCQASQSISSDLSWYQQKPGQRPKLLIYQASTLASGVPSRFKGSGYGTEYTLTISGVQREDAAIYYCLGGYADASYRTAFGGGTKLEIK
notes: Full-length chimeric rabbit/human IgG1 (kappa) with C-terminal tags HC: LPETG-Strep, LC: G5SLPETG-Strep
For the molecule B11, the IC50 in test [5] came out at 0.0505 µg/mL; in [1] it was 0.0419 µg/mL; in test [2] it was 0.0856 µg/mL; in test [8], 0.0433 µg/mL; in test [3] it was 0.0068 µg/mL. Also, the figures for the dissociation constant (Kd) in [6] and in [7] were at most 10.2 nM and at most 1.1 nM, respectively.

B12: chimeric rabbit/human Fab ERR2-302 (Fab, V domains shown)
VH: QKQLVESGGGLVKPGGSLTLTCTVSGFSLSSYAIGWVRQAPGNGLEWIGIINSYGSTYYASWAKSRSTITRNTNLNTVTLKMTSLTAADTATYFCARSPYGYVSAWGYHRLDLWGQGTLVTISS
VL: SYELTQLPSVSVSLGQTARITCGGASIGSKVVHWYQQKPGLAPGLLIYDDDERPSGVPDRFSGSNSGDTATLTISGAQAGDEAEYYCQLWDGSDVVFGGGTQLTVTG
On to B12, for which the binding result with BSA and in the test with hFc-hROR1 was “no binding (tested: 100 ng/50 µL)” throughout.
